Assay results reported in patent publication US20260193326A1.

Key:
Experiment in all cases: SPR, AAV on CM5 chip
[1] = target: AAV9 (adeno-associated virus serotype 9)
[2] = target: AAV8 (adeno-associated virus serotype 8)
[3] = target: AAV5 (adeno-associated virus serotype 5)

B1: A4-D10 (protein)
chain: VQLQESGGGLAQAGGSLRLSCAASGRGFSINTMGWYRQAPGKQRELVAAVTRGGTTNYADSVKGRFTISRDNAKNTVYLQMNSLRPEDTAVYYCHVDEVRQSSWTTSNLWGQGTQVTVSSGGGGSGGGGSGGGGSVQLQESGGGLVQPGGSLRLSCAASGRAFSINTMGWYRQAPGKQRELVATVTRDGSTNYAGSVKGRFTISRDNAKNTVYLQMNSLRPEDTAVYYCHVDEVRQSSWTTSNLWGQGTQVTVSSGGGGSGGGGSGGGGSVQLQESGGGLVQPGGSLRLSCAASGSIFIINTMGWYRRAPGKQRELVAAVTRGGSTNYADSVKGRFTISRDNAKNTVYLQMNSLRPEDTAVYYCHVDEVRQSSWTTSNLWGQGTQVTVSSGGGGSGGGGSGGGGSVQLQESGGGLVQPGGSLRLSCAASGSIFSINTMGWYRQAPGKQRELVAAVTRGGSTNYADSVKGRFTISRDNAKNTVYLQMNSLRPEDTAVYYCHVDEVRQSSWTTSNLWGQGTQVTVSS
B1 gave a Kd [1] of 61.1 pM, a koff [1] of 1.9e-06 s⁻¹ and a kon [1] of 31100 M⁻¹ s⁻¹. It also gave a Kd [2] of 542 pM, a koff [2] of 1.66e-05 s⁻¹ and a kon [2] of 30700 M⁻¹ s⁻¹. The Kd [3] was 481 pM, the koff [3] was 8.3e-06 s⁻¹ and the kon [3] was 17300 M⁻¹ s⁻¹.

B2: A4-D11 (protein)
chain: VQLQESGGGLVQPGGSLRLSCAASGRGFSINTMGWYRQAPGKQRELVAAVTRGGTTNYADSVKGRFTISRDNAKNTVYLQMNSLRPEDTAVYYCHVDEVRQSSWTTSNLWGQGTQVTVSSGGGGSGGGGSGGGGSVQLQESGGGLVQPGGSLRLSCAASGSIFSINTMGWYRQAPGKQRELVAAVTRGGSTNYADSVKGRFTISRDNAKNTVYLQMNSLRPEDTAVYYCHVDEVRQSSWTTSNLWGQGTQVTVSSGGGGSGGGGSGGGGSVQLQESGGGLVQPGGSLRLSCAASGSIFIINTMGWYRRAPGKQRELVAAVTRGGSTNYADSVKGRFTISRDNAKNTVYLQMNSLRPEDTAVYYCHVDEVRQSSWTTSNLWGQGTQVTVSSGGGGSGGGGSGGGGSVQLQESGGGLVQPGGSLRLSCAASGSSFVINTMGWYRQAPGKQRELVAAVTRGGSTNYADSVKGRFTISRDNAKNTVYLQMNSLRPEDTAVYYCHVDEVRQSSWTTSNLWGQGTQVTVSS
In the case of B2, the Kd [1] is reported as 181 pM, the koff [1] is reported as 4.8e-06 s⁻¹ and the kon [1] is reported as 26500 M⁻¹ s⁻¹. The Kd [2] was 319 pM, the koff [2] was 1.5e-05 s⁻¹ and the kon [2] was 47000 M⁻¹ s⁻¹. It also gave a Kd [3] of 1150 pM, a koff [3] of 1.4e-05 s⁻¹ and a kon [3] of 12200 M⁻¹ s⁻¹.

B3: A4-D13 (protein)
chain: VQLQESGGGLVQPGGSLRLSCAASGSIFIINTMGWYRRAPGKQRELVAAVTRGGSTNYADSVKGRFTISRDNAKNTVYLQMNSLRPEDTAVYYCHVDEVRQSSWTTSNLWGQGTQVTVSSGGGGSGGGGSGGGGSVQLQESGGGLVQPGGSLRLSCAASGSIFSINTMGWYRQAPGKQRELVAAVTRGGSTNYADSVKGRFTISRDNAKNTVYLQMNSLRPEDTAVYYCHVDEVRQSSWTTSNLWGQGTQVTVSSGGGGSGGGGSGGGGSVQLQESGGGLAQAGGSLRLSCAASGRGFSINTMGWYRQAPGKQRELVAAVTRGGTTNYADSVKGRFTISRDNAKNTVYLQMNSLRPEDTAVYYCHVDEVRQSSWTTSNLWGQGTQVTVSSGGGGSGGGGSGGGGSVQLQESGGGLVQPGGSLRLSCAASGRAFSINTMGWYRQAPGKQRELVATVTRDGSTNYAGSVKGRFTISRDNAKNTVYLQMNSLRPEDTAVYYCHVDEVRQSSWTTSNLWGQGTQVTVSS
B3 showed a Kd [1] of 47.1 pM, a koff [1] of 2.6e-06 s⁻¹ and a kon [1] of 55200 M⁻¹ s⁻¹. The Kd [2] was 355 pM, the koff [2] was 6.9e-06 s⁻¹ and the kon [2] was 19400 M⁻¹ s⁻¹. The Kd [3] was 701 pM, the koff [3] was 1.31e-05 s⁻¹ and the kon [3] was 18700 M⁻¹ s⁻¹.

B4: A4-D12 (protein)
chain: VQLQESGGGLVQPGGSLRLSCAASGSIFSINTMGWYRQAPGKQRELVAAVTRGGSTNYADSVKGRFTISRDNAKNTVYLQMNSLRPEDTAVYYCHVDEVRQSSWTTSNLWGQGTQVTVSSGGGGSGGGGSGGGGSVQLQESGGGLAQAGGSLRLSCAASGRGFSINTMGWYRQAPGKQRELVAAVTRGGTTNYADSVKGRFTISRDNAKNTVYLQMNSLRPEDTAVYYCHVDEVRQSSWTTSNLWGQGTQVTVSSGGGGSGGGGSGGGGSVQLQESGGGLVQPGGSLRLSCAASGRAFSINTMGWYRQAPGKQRELVATVTRDGSTNYAGSVKGRFTISRDNAKNTVYLQMNSLRPEDTAVYYCHVDEVRQSSWTTSNLWGQGTQVTVSSGGGGSGGGGSGGGGSVQLQESGGGLVQPGGSLRLSCAASGSIFIINTMGWYRRAPGKQRELVAAVTRGGSTNYADSVKGRFTISRDNAKNTVYLQMNSLRPEDTAVYYCHVDEVRQSSWTTSNLWGQGTQVTVSS
B4 showed a Kd [1] of 55.5 pM, a koff [1] of 3e-06 s⁻¹ and a kon [1] of 54000 M⁻¹ s⁻¹. It also gave a Kd [2] of 262 pM, a koff [2] of 6.5e-06 s⁻¹ and a kon [2] of 24800 M⁻¹ s⁻¹. It also gave a Kd [3] of 440 pM, a koff [3] of 1.7e-05 s⁻¹ and a kon [3] of 38600 M⁻¹ s⁻¹.
